Experimental data taken from the DeepSol protein solubility set.

Test: soluble on expression in E. coli; label from the status in PepcDB or PDB records

Row | Sequence | soluble on expression in E. coli
1 | MFEAKLANAGLLKKIVESIKDLVTDAPFDCSETAMSLQAMDSSHVALVSLKLEVGLFDTYRCDRTINLGLSLANMSKALKCANNDDTCMLKYEENEGDSIIFTFADPKRDKTQDVTVKMMDIDSEHLGIPDQDYAVVCEMPAGEFQKTCKDLSTFSDSLNITATKAGIVFTGKGDIGSSVVTYSPSSNTDDETEAVTLEVKDPVNVNFSIKYMNQFTKATALSDRVRLSLCNDVPVVVEYPIEENGYLRFYLAPKIDDDENMD | soluble
2 | MSLERTTHQSLNGSWQFQPVAATLHVTPQLQAPAGGWKKINVPDNWYRQGHDISGYAWYQTRFALDAHNASRVAHLVFHGVDYSADVWLNDRYLGHHTGYFQPFEFDVTGLVKPGENQLRVLVNSPLEQPQDWSLHKRLVKGIFSHHDTRPGGAWSERGQEKNTGGIWAPVELQFADRAAVRQLQVTPRKQATEANPQQWVVSTEADIHHDVSHETSVTVEARILPENFKGASFAFKQSQTLQPGGNHIAFSFPVDNPALWWPYEYGHPNLYRLELSVKDASGKLLDQREQVFGVREVKVDDGLQWFINGRRMFLRGTNYIASQWLAEMTPDRYRRDLEMMQAAHINAVRVHAHVTGQDFYELCDRMGILVTQDFPLLWGYSDDPDFIAEARRQAKDMVQLLQRHPSIISWTMHNEPPWDSPWMAQKYPDYHPDINRRLDALLYEDVSKLDTLRVVRKESATKEHEWMGWYFDHWLAFSRPAPTPWSTEFGAQALPNLKSLERMFSKALLWPDTEAKWQVWEYHNFQRKETFEFAGVKQGGNIEEFIANSQHYQARLIQFAVENYRRQRYAPVSAVFQFMFVENWPSINWGIVDYWREPKAGYEALRVAYQPVLPSLEWKQDEYEAGASPRIGLWAINDTWSGFEHASYTVTLYREGKPLDMLKLPLEMLPDSGYKLRDYALPVLEKGQYEIKAEITGQDGKSMGRNQYRFSVKEGHHHHHH | soluble
3 | SWQSYVDDHLMCDVEGNHLTAAAILGQDGSVWAQSAKFPQLKPQEIDGIKKDFEEPGFLAPTGLFLGGEKYMVIQGEQGAVIRGKKGPGGVTIKKTNQALVFGFYDEPMTGGQCNLVVERLGDYLIESEL | soluble
4 | MSLNLNLIFKEQTLKFNKEEQETYLFLQQHNSDWANIFKEMILQGRDKVTQRLVTSMHRENLVKARTQSKKILSRDLIMLDISTTHILEIQFPQAKQTLYAPITGEHAFDRIDVEGPFYIKDDITNTITRVHHPNEILECILIEAPDLKNAASDQFQQDLINSATNMTFAISYQALSMQHDSAPLFNIIENSEDSYLRSEQAVIEGHPLHPGAKLRKGLNALQTFLYSSEFNQPIKLKIVLIHSKLSRTMSLSKDYDTTVHQLFPDLIKQLENEFTPKFNFNDYHIMIVHPWQLDDVLHSDYQAEVDKELIIEAKHTLDYYAGLSFRTLVPKYPAMSPHIKLSTNVHITGEIRTLSEQTTHNGPLMTRILNDILEKDVIFKSYASTIIDEVAGIHFYNEQDEADYQTERSEQLGTLFRKNIYQMIPQEVTPLIPSSLVATYPFNNESPIVTLIKRYQSAASLSDFESSAKSWVETYSKALLGLVIPLVTKYGIALEAHLQNAIATFRKDGLLDTMYIRDFEGLRIDKAQLNEMGYSTSHFHEKSRILTDSKTSVFNKAFYSTVQNHLGELILTISKASNDSNLERHMWYIVRDVLDNIFDQLVLSTHKSNQVNENRINEIKDTMFAPFIDYKCVTTMRLEDEAHHYTYIKVNNPLYRENNEGHHHHHH | soluble
5 | TGASNYYIIFTSGTTGVPKGVQISHDNLVSFTNWLLQDFGLEEGARFLAQAPYSFDLSVMSIYPALALGGSLTPLPNEIINDFKQLFTRLPQLTIDVWVSTPSFIELCLMEPSFDGEHLPALRTFLFCGEELPKPTAEKLAARFPTAHIYNTYGPTEATVAISAIEITQEVLKSVQ | not soluble
6 | DMGESVKIIDLARQMITLSGLKPNTPEQPDGDIEILITGLRPGEKLYEELLIGDNVRKTGHPRIMTANETMLPWHELSALLDRIRAACDRYDQQAIRT | not soluble
7 | MNRLPRIEQYGLIGDTQTSAHVCDDGSIDWLCLPRFDSPAVFASLLGTQKHGSWQISPAPSTGRSGPEKVTERRYRGDSLVLESVWRTPTGSVRVLDFMPPRDGTPQVIRIVEGLTGDVEMLSAMRPRPGYLEHHHHHH | not soluble
8 | MGSDKIHHHHHHMRVILAQPRGFCAGVVRAIEIVDRALQQHGAPVYVRHEIVHNRHVVDNLRQKGARFVEELDEVPQGAVAIFSAHGVAQTVERDAEARGLDVLDATCPLVTKVHVQGRQYVGAGRTLILIGHAGHPEVEGTVGQIPGKVLLVQSEAEVENLDLPLDTPLAYVTQTTLSVDDTRGIIDALLSRFTDIVGPDTRDICYATQNRQAAVRELSKQVDVLLVVGATNSSNSNRLREIGSESGVASYLVADGSEVKPEWFANVQTVGITAGASAPEEMVKNVIDALSALGPVDVTTMAGREEKVEFKLPSKLMQPLAAREV | not soluble
9 | MGSDKIHHHHHHMTRILLRNKLDECLAAWQKAGFSVLAPVKRHEMSCFGEVQKSGDMALDLVLTERTIKDQFFPQTEPLIKYRIGKQQIDSETMTPPEKKRVFFGVRPCDASGLAIDDPLFGWDYKDDYWFRRREKSVIVTIACAQADDFCMCTSVKLSPDSTKGADVMLRPLSDGSGWQVEAVSDRGTALVDTVSSLLQESSAEAAPVPQVAEKFDVEKVMEWLADKENFESQFWKDIALRCVGCGSCTFLCPTCHCFDIQDEGDTYQGIRRKNWDSCSFPLFTMHTSGHNPRNTQSTRWRQRIMHKFNYYRGKFGVNSCSGCGRCTRQCPVDMGITETLQAITNLPR | not soluble
10 | MSGLHILAFGAHADDVEIGMAGTIAKYTKQGYEVGICDLTEADLSSNGTIELRKEEAKVAARIMGVKTRLNLAMPDRGLYMKEEYIREIVKVIRTYKPKLVFAPYYEDRHPDHANCAKLVEEAIFSAGIRKYMPELSPHRVESFYNYMINGFHKPNFCIDISEYLSIKVEALEAYESQFSTGSDGVKTPLTEGYVETVIAREKMFGKEVGVLYAEGFMSKKPVLLHADLLGGCK | not soluble
11 | MGSDKIHHHHHHMKKLVENLLSWCKKSMKMRRCVGKSTAPVTGQSVGQTGNAEGVLPSTATETVDEIVLPAAVETAGMVETIDEKAAFGKSGRKKPENMLDALQRFLTIRYDFRYNLLTEQTEYRGKEMPDEEYAMVAQRDLNTFCLEARTGGINCWDKDVSRLLHSRKVENYHPFLHYMSHLPQWDGVDRVTPLAVRISRKPMWVKGFHRWMLGVAAQWLGQAQDCANAVAPMLVSREQGKRKSSFCKILMPKELTPYYIDKFDLTSESGCEQKLSLFGLINMDEFDKYRAGQMPALKNLMQTTTLTFRRAHRPAFSHLPRIASFIGTSNMTDLLTDPTGSRRFLCAEVDGKIDCTPPDHAQLFAQLKAELAGGERYWFSEEEEKEIQHSNRNFYKMPAEQELFLRCFRMPQEGELSKPYTTTDLFNYLQKHYPAAMRGVTPNRLGRMMVALGIQRVHTEYGNVYRLVKLKDSSAA | not soluble
12 | DLTIDNGPEKGDLLVLGWGSTYGAIKKAVEQAREGGLDVAHAHLRYINPFPKNLGAMLGNFKKVLIPENNCGQLLSLIRDKFLIEPVGFSKVQGLPFNEMEIEEKITDILKEL | not soluble
13 | MFCEKAMELIRELHRAPEGQLPAFNEDGLRQVLEEMKALYEQNQSDVNEAKSGGRSDLIPTIKFRHCSLLRNRRCTVAYLYDRLLRIRALRWEYGSILPNALRFHMAAEEMEWFNNYKRSLATYMRSLGGDEGLDITQDMKPPKSLYIEVRCLKDYGEFEVDDGTSVLLKKNSQHFLPRWKCEQLIRQGVLEHILS | soluble
14 | ATEATNATNNQSTQVSQATSQPINFQVQKDGSSEKSHMDDYMQHPGKVIKQNNKYYFQTVLNNASFWKEYKFYNANNQELATTVVNDNKKADTRTINVAVEPGYKSLTTKVHIVVPQINYNHRYTTHLEFEKAIPTLADAAK | soluble
